Measurements: patent US20250049896A1 (Regeneron, published 2025)
Residue numbers refer to the chain shown, from its start.

What was measured:
[1] = biological target: T1, mf TFRC ecto-mmh (REGN2054), monomeric monkey (cyno) Tfrc ectodomain with C-terminal myc-myc-hexahistidine tag (monkey (cyno), Macaca fascicularis, UniProt H9EXL1 89-760); assay: SPR (Biacore), mAb captured on anti-human Fc, 100 nM mfTfR-mmh, 25 C
T1 construct: range 89-760; also called mfTfR-mmh; mfTFR-mmh
Description: (§1) Biacore binding kinetics assays were conducted for the interaction of 32 anti-human TfR IgG1 monoclonal antibodies from CHO supernatants with TfR reagents at 25° C.
(§2) Equilibrium dissociation constants (KD) for the interaction of anti-TfR monoclonal antibodies with human and fascicularis monkey TfR ecto domain recombinant proteins were determined using a real-time surface plasmon resonance (SPR) based Biacore S200 biosensor. All binding studies were performed in 10 mM HEPES, 150 mM NaCl, 3 mM EDTA, and 0.05% v/v surfactant Tween-20, pH 7.4 (HBS-EP) running buffer at […]. The Biacore CM5 sensor surface was first derivatized by amine coupling with a monoclonal mouse anti-human Fc antibody (REGN2567) followed by a step to capture anti-TfR monoclonal antibodies in CHO conditioned media. […] The dissociation of TfR bound to anti-TfR monoclonal antibodies was monitored for 3 minutes in HBS-EP running buffer. At the end of each cycle, the anti-TfR monoclonal antibodies capture surface was regenerated using a 12-sec injection of 20 mM H₃PO₄. The association rate (ka) and dissociation rate (kd) were determined by fitting the real-time binding sensorgrams to a 1:1 binding model with mass transport limitation using Scrubber 2.0 c software. The dissociation equilibrium constant (KD) and dissociative half-life (t½) were calculated from the kinetic rate constants as: […]

[2] = biological target: T2, hmm.hTfRC (REGN2431), human transferrin receptor extracellular domain with hexahistidine-myc-myc tag (human, UniProt P02786 89-760); assay: SPR (Biacore), mAb captured on anti-human Fc, 100 nM hTFR-mmh, 25 C
T2 construct: Monomeric recombinant protein, 79210 g/mol; also called hTFR-mmh; His-myc-myc-hTFRC ecto
T2 sequence (P02786 other isoform, or with tags, fused parts or gaps): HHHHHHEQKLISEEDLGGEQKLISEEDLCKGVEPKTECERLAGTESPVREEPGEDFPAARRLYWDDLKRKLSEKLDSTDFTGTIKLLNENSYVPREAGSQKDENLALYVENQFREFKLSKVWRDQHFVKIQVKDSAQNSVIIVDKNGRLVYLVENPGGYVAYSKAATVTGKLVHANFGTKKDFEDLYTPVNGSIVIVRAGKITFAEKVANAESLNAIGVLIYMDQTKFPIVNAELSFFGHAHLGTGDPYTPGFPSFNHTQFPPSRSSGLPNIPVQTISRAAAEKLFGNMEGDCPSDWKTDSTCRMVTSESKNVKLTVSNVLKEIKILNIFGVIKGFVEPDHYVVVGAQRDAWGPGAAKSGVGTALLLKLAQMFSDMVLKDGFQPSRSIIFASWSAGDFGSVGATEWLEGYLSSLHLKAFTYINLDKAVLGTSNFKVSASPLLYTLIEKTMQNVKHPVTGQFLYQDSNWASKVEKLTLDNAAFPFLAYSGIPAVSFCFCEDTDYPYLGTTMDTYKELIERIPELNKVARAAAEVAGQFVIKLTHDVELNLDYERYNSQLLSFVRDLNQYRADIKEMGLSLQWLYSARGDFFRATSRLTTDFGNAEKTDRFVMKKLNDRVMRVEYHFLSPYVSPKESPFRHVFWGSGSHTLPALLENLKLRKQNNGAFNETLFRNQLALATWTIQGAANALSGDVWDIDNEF
Description: as §1, §2

T1 sequence (chain, as listed by the source): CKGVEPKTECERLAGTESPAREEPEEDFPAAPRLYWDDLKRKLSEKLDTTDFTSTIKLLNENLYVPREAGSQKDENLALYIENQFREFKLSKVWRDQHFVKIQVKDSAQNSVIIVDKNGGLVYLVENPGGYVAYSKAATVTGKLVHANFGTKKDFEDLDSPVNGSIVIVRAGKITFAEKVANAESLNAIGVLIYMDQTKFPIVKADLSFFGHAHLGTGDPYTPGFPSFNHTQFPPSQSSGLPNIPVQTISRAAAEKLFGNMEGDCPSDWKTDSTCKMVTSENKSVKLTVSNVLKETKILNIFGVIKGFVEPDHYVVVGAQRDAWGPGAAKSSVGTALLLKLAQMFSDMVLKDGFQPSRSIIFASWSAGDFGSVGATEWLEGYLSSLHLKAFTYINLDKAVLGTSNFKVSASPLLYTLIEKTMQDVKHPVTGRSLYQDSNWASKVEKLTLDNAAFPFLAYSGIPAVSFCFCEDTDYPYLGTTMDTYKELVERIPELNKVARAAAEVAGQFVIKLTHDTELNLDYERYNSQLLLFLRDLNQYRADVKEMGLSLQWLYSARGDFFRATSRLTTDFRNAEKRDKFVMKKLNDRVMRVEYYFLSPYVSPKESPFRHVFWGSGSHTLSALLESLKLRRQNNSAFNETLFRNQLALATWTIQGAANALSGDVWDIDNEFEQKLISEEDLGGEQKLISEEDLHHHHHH

B1: 12799B (antibody, human IgG1, kappa, V domains shown)
VH: QITLKESGPTLVKPTQTLTLTCTFSGFSLSTSGVGVVWIRQPPGKALEWLALIYWNDHKRYSPSLGSRLTITKDTSKNQVVLTMTNMDPVDTATYYCAHYSGSYSYYYYGLDVWGQGTTVTVSS
VL: DIQMTQSPSSVSASVGDRVTITCRASQGIASWLAWYQQKPGKAPELLIYAASSLQGGVPSRFSGSGSGTDFTLTISSLQPEDFAIYYCQQANYFPWTFGQGTKVEIKR
notes: Tested as bivalent human IgG1 from CHO primary supernatant; also called H1H12799B; REGN17508
100 nM Ag Bound (RU) [1]: 651 RU | Kd [1]: 1.88 nM | koff [1]: 0.000162 s⁻¹ | kon [1]: 86400 M⁻¹ s⁻¹ | t½ [1]: 71.2 min | 100 nM Ag Bound (RU) [2]: 699 RU | Kd [2]: 0.851 nM | koff [2]: 6.62e-05 s⁻¹ | kon [2]: 77600 M⁻¹ s⁻¹ | t½ [2]: 174 min

B2: 12833B (antibody, human IgG1, kappa, V domains shown)
VH: QVQLVESGGGVVQPGRSLRLSCAASGFTFSSFGMHWVRQAPGKGLEWVIFISYDGSDKYYADSVKGRFAISRDSSKNTLYLQMNSLRAEDTAVYYCAKENGILTDSYGMDVWGQGTTVTVSS
VL: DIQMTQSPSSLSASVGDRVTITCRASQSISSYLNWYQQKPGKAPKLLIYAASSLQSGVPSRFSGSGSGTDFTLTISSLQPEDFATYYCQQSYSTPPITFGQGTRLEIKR
notes: Tested as bivalent human IgG1 from CHO primary supernatant
100 nM Ag Bound (RU) [1]: 346 RU | Kd [1]: 7.02 nM | koff [1]: 0.000486 s⁻¹ | kon [1]: 69200 M⁻¹ s⁻¹ | t½ [1]: 23.8 min | 100 nM Ag Bound (RU) [2]: 409 RU | Kd [2]: 3.51 nM | koff [2]: 0.000252 s⁻¹ | kon [2]: 72000 M⁻¹ s⁻¹ | t½ [2]: 45.9 min

B3: 69323 (antibody, human IgG1, kappa, V domains shown)
VH: EVQLVESGGGLVQPGRSLRLSCAASGFTFDDYAMHWVRQAPGKGLEWVSGISWNSGYIGYADSVKGRFTISRDNAENSLHLQMNSLRAEDTALYYCARGGSTLVRGVKGGYYGMDVWGQGTTVTVSS
VL: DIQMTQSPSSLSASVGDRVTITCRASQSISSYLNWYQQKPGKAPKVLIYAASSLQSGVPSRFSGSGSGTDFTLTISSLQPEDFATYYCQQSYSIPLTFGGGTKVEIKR
notes: as for B2
100 nM Ag Bound (RU) [1]: 24 RU | Kd [1]: 19 nM | koff [1]: 0.0106 s⁻¹ | kon [1]: 558000 M⁻¹ s⁻¹ | t½ [1]: 1.1 min | 100 nM Ag Bound (RU) [2]: 465 RU | Kd [2]: 2.45 nM | koff [2]: 0.00018 s⁻¹ | kon [2]: 73400 M⁻¹ s⁻¹ | t½ [2]: 64.1 min

B4: 12816B (antibody, human IgG1, kappa, V domains shown)
VH: QVQLVESGGGLVKPGGSLRLSCAASGFTFSDYYMNWIRQAPGKGLEWVSYISSSGTTIYYADSVKGRFTISRDNAKKSLYLEMNSLRAEDTAVYYCAREGYGNDYYYYGIDVWGQGTTVTVSS
VL: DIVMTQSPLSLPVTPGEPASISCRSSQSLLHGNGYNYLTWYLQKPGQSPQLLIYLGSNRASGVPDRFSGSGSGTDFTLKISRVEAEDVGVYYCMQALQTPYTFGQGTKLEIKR
notes: as for B2
100 nM Ag Bound (RU) [1]: 315 RU | Kd [1]: 7.44 nM | koff [1]: 0.000485 s⁻¹ | kon [1]: 65200 M⁻¹ s⁻¹ | t½ [1]: 23.8 min | 100 nM Ag Bound (RU) [2]: 357 RU | Kd [2]: 5.8 nM | koff [2]: 0.000336 s⁻¹ | kon [2]: 57900 M⁻¹ s⁻¹ | t½ [2]: 34.3 min

B5: 69261 (antibody, human IgG1, kappa, V domains shown)
VH: B4 VH with D31V, T56S, K77N, E82Q, A97G, G102S, N103G, D104T, Y106S, I110M
VL: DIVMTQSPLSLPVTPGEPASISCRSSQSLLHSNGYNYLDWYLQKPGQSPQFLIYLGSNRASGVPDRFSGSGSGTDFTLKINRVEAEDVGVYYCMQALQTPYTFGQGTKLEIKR
notes: as for B2
100 nM Ag Bound (RU) [1]: 331 RU | Kd [1]: 5.9 nM | koff [1]: 0.000403 s⁻¹ | kon [1]: 68300 M⁻¹ s⁻¹ | t½ [1]: 28.7 min | 100 nM Ag Bound (RU) [2]: 462 RU | Kd [2]: 1.16 nM | koff [2]: 8.08e-05 s⁻¹ | kon [2]: 70000 M⁻¹ s⁻¹ | t½ [2]: 143 min

B6: 31874B (antibody, human IgG1, kappa, V domains shown)
VH: EVQLVESGGGLVQPGGSLRLSCAASGFAFSSYAMTWVRQAPGKGLEWVSVISGTGGSTYYADSVKGRFTISRDNSKNTLYLQMNSLRAEDTAVYYCAKGGAARRMEYFQYWGQGTLVTVSS
VL: DIQMTQSPSSLSASVGDRVTITCRASQGISNYLAWYQQKPGKVPNLLIYAASTLQSGVPSRFSGSGSGTDFTLTISSLQPEDVATYYCQKYNSAPLTFGGGTKVEIKR
notes: Tested as bivalent human IgG1 from CHO primary supernatant; also called H1H31874B; REGN17517
100 nM Ag Bound (RU) [1]: 26 RU | Kd [1]: 14.4 nM | koff [1]: 0.00996 s⁻¹ | kon [1]: 691000 M⁻¹ s⁻¹ | t½ [1]: 1.2 min | 100 nM Ag Bound (RU) [2]: 904 RU | Kd [2]: 0.836 nM | koff [2]: 0.000115 s⁻¹ | kon [2]: 138000 M⁻¹ s⁻¹ | t½ [2]: 100 min

B7: 69331 (antibody, human IgG1, kappa, V domains shown)
VH: QVQLVESGGGVVQPGRSLRLSCIASGFTFSVYGIHWVRQAPGKGLEWMAVISHDGNIKHYADSVKGRFTISRDNSKNTLYLQINSLRTEDTAVYYCAKDTWNSLDTFDIWGQGTMVTVSS
VL: B6 VL with M4L, R24W, N31S, V43A, N45K, D70E, V83F, K90Q, Y91L, A94Y
notes: as for B2
100 nM Ag Bound (RU) [1]: 26 RU | Kd [1]: 20.5 nM | koff [1]: 0.01 s⁻¹ | kon [1]: 489000 M⁻¹ s⁻¹ | t½ [1]: 1.2 min | 100 nM Ag Bound (RU) [2]: 87 RU | Kd [2]: 41 nM | koff [2]: 0.00466 s⁻¹ | kon [2]: 114000 M⁻¹ s⁻¹ | t½ [2]: 2.5 min

B8: 69263 (antibody, human IgG1, kappa, V domains shown)
VH: EVQLVESGGGLVQPGRSLRLSCAVSGFTFDDYAMHWVRQAPGKGLEWVSGISWNSGTRGYADSVKGRFTISRDNAKNSLYLQMNSLRGEDTALYYCVKDITISPNYYGMDVWGQGTTVTVSS
VL: B6 VL with G28D, N31H, L33S, V43L, T72S, I75T, A94V
notes: as for B2
100 nM Ag Bound (RU) [1]: 77 RU | Kd [1]: 19.2 nM | koff [1]: 0.00378 s⁻¹ | kon [1]: 197000 M⁻¹ s⁻¹ | t½ [1]: 3.1 min | 100 nM Ag Bound (RU) [2]: 150 RU | Kd [2]: 6.5 nM | koff [2]: 0.00115 s⁻¹ | kon [2]: 177000 M⁻¹ s⁻¹ | t½ [2]: 10 min

B9: 12798B (antibody, human IgG1, kappa, V domains shown)
VH: EVQLVESGGDLVQPGRSLRLSCAASGFTFDDYAMHWVRQAPGKGLEWVSGISWNSATRVYADSVKGRFTISRDNAKNFLYLQMNSLRSEDTALYHCAKDMDISLGYYGLDVWGQGTTVTVSS
VL: not shown
notes: Tested as bivalent human IgG1 from CHO primary supernatant; also called H1H12798B; REGN17507
100 nM Ag Bound (RU) [1]: 508 RU | Kd [1]: 16.3 nM | koff [1]: 0.00129 s⁻¹ | kon [1]: 79000 M⁻¹ s⁻¹ | t½ [1]: 9 min | 100 nM Ag Bound (RU) [2]: 1150 RU | Kd [2]: 0.387 nM | koff [2]: 6.33e-05 s⁻¹ | kon [2]: 163000 M⁻¹ s⁻¹ | t½ [2]: 183 min

B10: 69348 (antibody, human IgG1, kappa, V domains shown)
VH: QVQLVESGGGVVQPGRSLRLSCAASGFTFTTYGMHWVRQAPGKGLEWVAVIWYDGSNKYYGDSVKGRFTISRDNSKNTLYLQMNSLRVDDTAVYYCTRTHGYTRSSDGFDYWGQGTLVTVSS
VL: DIQMTQSPSSLSASVGDRVTITCRASQSIRNVLGWFQQKPGKAPQRLIYAASSLQSGVPSRFSGSGSGTEFTLTISSLQPEDFATYYCLQHNFYPLTFGGGTKVEIKR
notes: as for B2
100 nM Ag Bound (RU) [1]: 433 RU | Kd [1]: 4.8 nM | koff [1]: 0.000461 s⁻¹ | kon [1]: 96000 M⁻¹ s⁻¹ | t½ [1]: 25.1 min | 100 nM Ag Bound (RU) [2]: 680 RU | Kd [2]: 1.62 nM | koff [2]: 0.000172 s⁻¹ | kon [2]: 106000 M⁻¹ s⁻¹ | t½ [2]: 67.2 min

B11: 69340 (antibody, human IgG1, kappa, V domains shown)
VH: EVQLVESGGGLVQPGRSLRLSCAASGFTFDDKAMHWVRQVPGKGLEWISGISWNSGTIGYADSVKGRFIISRDNAKNSLYLQMNSLRAEDTALYYCAKDGDTSGWYWYGLDVWGQGTTVTVSS
VL: EIVLTQSPATLSLSPGERATLSCRASQSVSSYLAWYQQKPGQAPRLLIHDVSNRATGIPARFSGSGSGTDFTLTISSLEPEDFVVYYCQQRSDWPITFGQGTRLEIKR
notes: as for B2
100 nM Ag Bound (RU) [1]: 634 RU | Kd [1]: 8.11 nM | koff [1]: 0.000723 s⁻¹ | kon [1]: 89200 M⁻¹ s⁻¹ | t½ [1]: 16 min | 100 nM Ag Bound (RU) [2]: 999 RU | Kd [2]: 0.429 nM | koff [2]: 6.23e-05 s⁻¹ | kon [2]: 144000 M⁻¹ s⁻¹ | t½ [2]: 185 min
